One experiment addresses T1, EphA8 (Mus musculus, UniProt O09127).
T1 sequence (O09127 27-1004): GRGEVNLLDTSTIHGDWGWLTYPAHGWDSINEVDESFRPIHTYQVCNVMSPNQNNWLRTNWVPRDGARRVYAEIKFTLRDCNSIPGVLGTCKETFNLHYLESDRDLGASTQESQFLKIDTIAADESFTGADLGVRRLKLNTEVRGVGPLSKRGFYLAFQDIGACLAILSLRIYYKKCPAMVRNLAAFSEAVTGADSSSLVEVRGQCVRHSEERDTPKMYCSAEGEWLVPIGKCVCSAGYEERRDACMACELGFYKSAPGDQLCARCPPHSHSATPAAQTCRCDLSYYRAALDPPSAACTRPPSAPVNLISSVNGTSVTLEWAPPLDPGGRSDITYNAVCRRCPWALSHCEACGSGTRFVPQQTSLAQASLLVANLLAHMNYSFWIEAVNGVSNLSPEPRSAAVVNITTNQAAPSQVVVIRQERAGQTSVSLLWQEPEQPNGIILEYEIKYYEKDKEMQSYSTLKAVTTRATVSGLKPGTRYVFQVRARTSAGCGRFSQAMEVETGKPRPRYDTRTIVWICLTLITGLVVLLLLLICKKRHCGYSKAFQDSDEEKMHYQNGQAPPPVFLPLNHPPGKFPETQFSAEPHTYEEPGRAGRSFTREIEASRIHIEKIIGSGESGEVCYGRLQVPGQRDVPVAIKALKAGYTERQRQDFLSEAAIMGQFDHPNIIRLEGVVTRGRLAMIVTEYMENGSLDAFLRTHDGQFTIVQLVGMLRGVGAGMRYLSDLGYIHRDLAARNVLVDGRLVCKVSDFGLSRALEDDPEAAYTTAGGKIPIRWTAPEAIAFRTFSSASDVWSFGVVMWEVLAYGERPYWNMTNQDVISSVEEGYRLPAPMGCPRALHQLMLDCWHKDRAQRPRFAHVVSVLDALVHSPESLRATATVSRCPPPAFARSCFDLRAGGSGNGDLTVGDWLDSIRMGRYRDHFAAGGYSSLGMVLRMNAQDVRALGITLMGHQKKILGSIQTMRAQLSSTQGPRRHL
The note with it: read-out: Kd for binding to EphA8; cited from earlier work.

Another experiment deals with EphA3. Particulars: read-out: Kd for binding to EphA3; cited from earlier work.
For a further experiment, the target named is T2, His-GRIP(PDZ4-6) (rat, UniProt P97879 448-792).
T2 construct: range 448-792; not shown: His tag and vector residues from pRSET
T2 sequence (looked up): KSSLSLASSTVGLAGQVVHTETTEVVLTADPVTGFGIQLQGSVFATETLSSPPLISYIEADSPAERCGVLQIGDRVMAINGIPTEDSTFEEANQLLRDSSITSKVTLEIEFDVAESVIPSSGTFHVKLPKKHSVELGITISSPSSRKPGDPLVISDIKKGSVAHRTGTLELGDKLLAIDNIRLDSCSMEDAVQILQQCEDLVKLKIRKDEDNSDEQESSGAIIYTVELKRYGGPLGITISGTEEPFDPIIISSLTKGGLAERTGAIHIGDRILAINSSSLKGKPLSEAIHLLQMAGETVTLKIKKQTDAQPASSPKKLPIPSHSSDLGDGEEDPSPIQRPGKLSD
The experiment can be described thus: displacement of ^35S-EphB2 (50 nM) from His-GRIP-PDZ4-6, Hill fit.

B1: ephrin-A3: a 238 amino acid polypeptide; ephrin ligand (protein, UniProt P52797 1-238, looked up)
chain: MAAAPLLLLLLLVPVPLLPLLAQGPGGALGNRHAVYWNSSNQHLRREGYTVQVNVNDYLDIYCPHYNSSGVGPGAGPGPGGGAEQYVLYMVSRNGYRTCNASQGFKRWECNRPHAPHSPIKFSEKFQRYSAFSLGYEFHAGHEYYYISTPTHNLHWKCLRMKVFVCCASTSHSGEKPVPTLPQFTMGPNVKINVLEDFEGENPQVPKLEKSISGTSPKREHLPLAVGIAFFLMTFLAS
modifications: full-length
notes: a 238 amino acid polypeptide; ephrin ligand
As usually defined, the Kd is the concentration at which binding is half-saturated. On to B1, for which the results for the Kd with EphA8 and at EphA3 were 1.1 nM and 5 nM, respectively.

B2: EphB2 carboxy terminal peptide (peptide)
peptide: QMNQIQSVEV
notes: also called EphB2 peptide
Broadly, the Ki is a measure of affinity in units of concentration, obtained from inhibition or displacement. B2 returned an inhibition constant Ki in the experiment with His-GRIP(PDZ4-6) of 43 nM.

The values above are taken from patent publication US20040241754A1, “Modulating neuronal plasticity” (The Salk Institute for Biological Studies, priority 2003, published 2004).
